This note sets out measurements from PMC4505944, “The THERMOSENSITIVE MALE STERILE 1 Interacts with the BiPs via DnaJ Domain and Stimulates Their ATPase Enzyme Activities in Arabidopsis” (PLoS ONE, 2015).

Experiment [1] has as its target T1, BiP1 without signal peptide, His-tagged (Arabidopsis thaliana, UniProt Q9LKR3 28-669).
T1 construct: full-length CDS without the signal peptide; Cloned into pET30a(+) (EcoRI/XhoI); further vector-derived residues between the tag and BiP1 are likely; also called BiP1-His; source: E. coli BL21, purified, dialyzed; not shown: His6, N-terminal, kept
The experiment is described as follows: pull-down; 30 μg GST fusion or GST on Glutathione Sepharose 4B beads; 30 μg purified BiP1 or BiP3 with 1 mM ATP in 1 mL binding buffer (20 mM Hepes pH 6.8, 100 mM KCl, 5 mM MgCl2, 0.1% NP-40, 2% glycerol, 1 mM DTT, 1 mM EDTA), 4°C, 2 h; anti-His blot. As to conditions: both partners purified.

Experiment [2] addresses T2, BiP3 without signal peptide, His-tagged (Arabidopsis thaliana, UniProt Q8H1B3 36-675).
T2 construct: full-length CDS without the signal peptide; Cloned into pET30a(+) (EcoRI/XhoI); further vector-derived residues between the tag and BiP3 are likely; also called BiP3-His; source: E. coli BL21, purified, dialyzed; not shown: His6, N-terminal, kept
Described as above. As to conditions: both partners purified.

T1 sequence (Q9LKR3 28-669): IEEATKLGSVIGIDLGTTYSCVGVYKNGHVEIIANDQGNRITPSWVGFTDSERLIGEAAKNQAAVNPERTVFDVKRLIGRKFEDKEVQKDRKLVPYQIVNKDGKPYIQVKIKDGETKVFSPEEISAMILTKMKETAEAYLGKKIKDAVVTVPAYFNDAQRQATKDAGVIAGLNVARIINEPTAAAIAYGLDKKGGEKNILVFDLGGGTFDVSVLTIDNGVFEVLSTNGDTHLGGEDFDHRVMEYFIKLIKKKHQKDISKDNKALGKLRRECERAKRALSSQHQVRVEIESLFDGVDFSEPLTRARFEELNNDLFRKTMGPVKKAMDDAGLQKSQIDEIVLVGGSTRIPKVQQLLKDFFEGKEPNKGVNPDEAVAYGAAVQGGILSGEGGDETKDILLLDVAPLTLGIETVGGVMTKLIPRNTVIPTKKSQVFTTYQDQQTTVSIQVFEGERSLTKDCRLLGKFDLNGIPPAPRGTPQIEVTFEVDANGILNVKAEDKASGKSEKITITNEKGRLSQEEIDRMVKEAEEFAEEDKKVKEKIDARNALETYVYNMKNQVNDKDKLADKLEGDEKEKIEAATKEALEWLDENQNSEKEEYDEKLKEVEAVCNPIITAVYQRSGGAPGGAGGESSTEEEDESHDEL
T2 sequence (Q8H1B3 36-675): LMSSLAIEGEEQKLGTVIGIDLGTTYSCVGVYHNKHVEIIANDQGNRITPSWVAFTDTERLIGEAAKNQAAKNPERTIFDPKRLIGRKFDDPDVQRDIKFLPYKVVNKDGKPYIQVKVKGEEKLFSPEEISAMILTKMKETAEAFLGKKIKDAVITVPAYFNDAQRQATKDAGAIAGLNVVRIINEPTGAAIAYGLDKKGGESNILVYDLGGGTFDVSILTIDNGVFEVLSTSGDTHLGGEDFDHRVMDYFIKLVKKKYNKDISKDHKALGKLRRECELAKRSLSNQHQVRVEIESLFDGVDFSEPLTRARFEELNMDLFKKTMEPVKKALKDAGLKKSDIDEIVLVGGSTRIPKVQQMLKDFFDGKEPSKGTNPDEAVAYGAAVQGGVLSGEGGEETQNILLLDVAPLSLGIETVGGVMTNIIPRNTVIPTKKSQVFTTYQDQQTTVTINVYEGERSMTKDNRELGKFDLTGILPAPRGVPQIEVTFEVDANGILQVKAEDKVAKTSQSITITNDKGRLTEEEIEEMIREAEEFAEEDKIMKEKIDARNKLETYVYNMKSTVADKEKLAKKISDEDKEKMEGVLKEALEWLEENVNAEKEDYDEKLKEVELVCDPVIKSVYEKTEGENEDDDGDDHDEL

B1: recombinant TMS1 DnaJ domain with a GST tag (domain or fragment, Arabidopsis thaliana, UniProt Q9SR96 27-80, looked up)
chain: DPYKVLGVSKDAKQREIQKAFHKQSLKYHPDKNKDKGAQEKFAEINNAYEILSD
notes: DnaJ domain of TMS1 (AtERdj3A), Arabidopsis thaliana, 54 amino acid residues, 27-80 aa in TMS1; Cloned into pGEX4T-1 (EcoRI/XhoI); also called GST-DnaJ; source: E. coli BL21, purified, dialyzed
Consider B1, for which the binding result in experiment [1] and in experiment [2] was “binds” in each case.
